Laboratory results: patent publication US20230057177A1 (CULLGEN SHANGHAI, published 2023)

B1: Peptide 1 (SEQ ID NO: 1) (peptide)
peptide: ILPKVLHKRTLGLS
notes: No terminal modifications are stated for the tested peptide

Assays:
[1] = target: T1, His-DDB1 (human DNA damage-binding protein 1 with N-terminal His6-tag) (human, UniProt Q16531 1-1140); assay: SPR (Biacore), His-DDB1 amine-coupled on CM5 chip, steady state affinity fit; graded cell, table key: A: Kd < 20 uM
T1 construct: Vector-derived residues between the His6-tag and DDB1 (pFastBacHTB) are not described; also called His-DDB1 proteins

[2] = target: T1, His-DDB1 (human DNA damage-binding …); assay: SPR (Biacore), His-DDB1 amine-coupled on CM5 chip, steady state affinity fit; graded cell, table key: B: Kd 20-100 uM (lower end of the range)

T1 sequence (Q16531 other isoform, or with tags, fused parts or gaps limits assumed): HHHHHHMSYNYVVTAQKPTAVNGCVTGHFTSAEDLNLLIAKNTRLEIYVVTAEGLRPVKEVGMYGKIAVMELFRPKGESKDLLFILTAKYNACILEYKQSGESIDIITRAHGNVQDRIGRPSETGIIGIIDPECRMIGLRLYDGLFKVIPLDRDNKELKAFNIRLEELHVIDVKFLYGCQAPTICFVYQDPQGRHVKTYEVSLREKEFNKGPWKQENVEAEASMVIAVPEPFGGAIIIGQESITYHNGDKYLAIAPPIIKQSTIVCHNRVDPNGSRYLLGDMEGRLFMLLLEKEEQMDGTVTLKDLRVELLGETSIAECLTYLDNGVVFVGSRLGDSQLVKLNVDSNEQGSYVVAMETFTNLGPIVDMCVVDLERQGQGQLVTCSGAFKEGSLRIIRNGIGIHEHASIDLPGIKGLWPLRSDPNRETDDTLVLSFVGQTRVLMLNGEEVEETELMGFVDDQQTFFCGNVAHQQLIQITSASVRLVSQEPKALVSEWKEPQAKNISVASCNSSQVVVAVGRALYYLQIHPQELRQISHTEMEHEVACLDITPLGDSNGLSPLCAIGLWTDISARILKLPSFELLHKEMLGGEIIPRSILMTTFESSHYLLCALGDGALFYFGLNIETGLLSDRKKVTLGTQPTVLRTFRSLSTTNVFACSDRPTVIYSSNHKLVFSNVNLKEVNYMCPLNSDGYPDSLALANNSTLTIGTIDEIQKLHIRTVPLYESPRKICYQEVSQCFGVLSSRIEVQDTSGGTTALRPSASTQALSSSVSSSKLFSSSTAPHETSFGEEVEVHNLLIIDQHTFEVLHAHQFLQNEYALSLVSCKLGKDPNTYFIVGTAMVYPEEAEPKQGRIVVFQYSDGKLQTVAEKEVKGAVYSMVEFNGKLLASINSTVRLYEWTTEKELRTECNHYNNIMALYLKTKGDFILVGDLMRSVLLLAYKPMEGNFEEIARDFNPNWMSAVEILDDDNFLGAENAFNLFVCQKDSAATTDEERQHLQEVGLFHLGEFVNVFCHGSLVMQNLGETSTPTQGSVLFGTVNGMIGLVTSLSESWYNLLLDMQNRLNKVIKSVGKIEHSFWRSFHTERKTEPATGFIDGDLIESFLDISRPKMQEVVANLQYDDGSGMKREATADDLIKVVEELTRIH

Binder	Kd [1] [µM]	Kd [2] [µM]
ILPKVWHKRELGLS [Peptide 2 (SEQ ID NO: 2)]	< 20	
SRLNRRASF [Peptide 7 (SEQ ID NO: 7)]		20 to 100
B1	< 20	
NFTSRLNRRASFP [Peptide 6 (SEQ ID NO: 6)]	< 20	
ILPKVLHKRTLGL [Peptide 3 (SEQ ID NO: 3)]	< 20	
ILPKVLHKRTFGL [Peptide 4 (SEQ ID NO: 4)]	< 20	
KVLHKRTLG [Peptide 5 (SEQ ID NO: 5)]	< 20	
